Measurements reported in patent US20140213513A1 (Sanofi, priority 2012, published 2014).
*1 amine or outer side, *2 acyl side, *3 side chain or, on linkers, in order; H or OH if unused. Where no end group is shown, it is not given here. Side-chain parts run from the residue outwards. [ ]: non-standard residue; d: D form. The star is where a group is joined. γGlu = O=C(O)[C@H](CCC(=O)[*:2])N[*:1]; Stearoyl = CCCCCCCCCCCCCCCCCC(=O)*; Palmitoyl = CCCCCCCCCCCCCCCC(=O)*; Aib = CC(C)(N)C(=O)O

T1: human GIP receptor (human, UniProt P48546 22-466)
T1 sequence (looked up): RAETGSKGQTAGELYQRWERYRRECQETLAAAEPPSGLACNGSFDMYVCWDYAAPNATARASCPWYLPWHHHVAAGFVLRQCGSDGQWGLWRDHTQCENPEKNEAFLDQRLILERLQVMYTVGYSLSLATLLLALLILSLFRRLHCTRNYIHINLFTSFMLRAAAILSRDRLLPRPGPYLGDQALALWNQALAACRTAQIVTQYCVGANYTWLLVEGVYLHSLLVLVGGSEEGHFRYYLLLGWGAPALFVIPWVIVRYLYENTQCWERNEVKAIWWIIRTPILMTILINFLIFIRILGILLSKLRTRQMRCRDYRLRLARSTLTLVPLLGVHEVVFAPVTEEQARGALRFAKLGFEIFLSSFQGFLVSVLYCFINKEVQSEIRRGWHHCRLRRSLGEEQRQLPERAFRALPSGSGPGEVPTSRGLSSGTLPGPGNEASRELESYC

B1: exendin-4 peptide analogue SEQ ID NO: 57 (peptide)
peptide: Y[Aib]EGTFTSDLSIQK([γGlu-Palmitoyl])EERAAHEFIEWLKR[Aib]GPSSGAPPPSK-NH2
modifications: N-terminus assumed
SMILES: CCCCCCCCCCCCCCCC(=O)N[C@@H](CCC(=O)NCCCC[C@H](NC(=O)[C@H](CCC(N)=O)NC(=O)[C@@H](NC(=O)[C@H](CO)NC(=O)[C@H](CC(C)C)NC(=O)[C@H](CC(=O)O)NC(=O)[C@H](CO)NC(=O)[C@@H](NC(=O)[C@H](Cc1ccccc1)NC(=O)[C@@H](NC(=O)CNC(=O)[C@H](CCC(=O)O)NC(=O)C(C)(C)NC(=O)[C@@H](N)Cc1ccc(O)cc1)[C@@H](C)O)[C@@H](C)O)[C@@H](C)CC)C(=O)N[C@@H](CCC(=O)O)C(=O)N[C@@H](CCC(=O)O)C(=O)N[C@@H](CCCNC(=N)N)C(=O)N[C@@H](C)C(=O)N[C@@H](C)C(=O)N[C@@H](Cc1c[nH]cn1)C(=O)N[C@@H](CCC(=O)O)C(=O)N[C@@H](Cc1ccccc1)C(=O)N[C@H](C(=O)N[C@@H](CCC(=O)O)C(=O)N[C@@H](Cc1c[nH]c2ccccc12)C(=O)N[C@@H](CC(C)C)C(=O)N[C@@H](CCCCN)C(=O)N[C@@H](CCCNC(=N)N)C(=O)NC(C)(C)C(=O)NCC(=O)N1CCC[C@H]1C(=O)N[C@@H](CO)C(=O)N[C@@H](CO)C(=O)NCC(=O)N[C@@H](C)C(=O)N1CCC[C@H]1C(=O)N1CCC[C@H]1C(=O)N1CCC[C@H]1C(=O)N[C@@H](CO)C(=O)N[C@@H](CCCCN)C(N)=O)[C@@H](C)CC)C(=O)O
B2: exendin-4 peptide analogue SEQ ID NO: 60 (peptide)
peptide: Y[Aib]QGTFTSDLSKQK([γGlu-Stearoyl])DEEAARLFIEWLKAGGPSSGAPPPS-NH2
modifications: N-terminus assumed
SMILES: CCCCCCCCCCCCCCCCCC(=O)N[C@@H](CCC(=O)NCCCC[C@H](NC(=O)[C@H](CCC(N)=O)NC(=O)[C@H](CCCCN)NC(=O)[C@H](CO)NC(=O)[C@H](CC(C)C)NC(=O)[C@H](CC(=O)O)NC(=O)[C@H](CO)NC(=O)[C@@H](NC(=O)[C@H](Cc1ccccc1)NC(=O)[C@@H](NC(=O)CNC(=O)[C@H](CCC(N)=O)NC(=O)C(C)(C)NC(=O)[C@@H](N)Cc1ccc(O)cc1)[C@@H](C)O)[C@@H](C)O)C(=O)N[C@@H](CC(=O)O)C(=O)N[C@@H](CCC(=O)O)C(=O)N[C@@H](CCC(=O)O)C(=O)N[C@@H](C)C(=O)N[C@@H](C)C(=O)N[C@@H](CCCNC(=N)N)C(=O)N[C@@H](CC(C)C)C(=O)N[C@@H](Cc1ccccc1)C(=O)N[C@H](C(=O)N[C@@H](CCC(=O)O)C(=O)N[C@@H](Cc1c[nH]c2ccccc12)C(=O)N[C@@H](CC(C)C)C(=O)N[C@@H](CCCCN)C(=O)N[C@@H](C)C(=O)NCC(=O)NCC(=O)N1CCC[C@H]1C(=O)N[C@@H](CO)C(=O)N[C@@H](CO)C(=O)NCC(=O)N[C@@H](C)C(=O)N1CCC[C@H]1C(=O)N1CCC[C@H]1C(=O)N1CCC[C@H]1C(=O)N[C@@H](CO)C(N)=O)[C@@H](C)CC)C(=O)O
B3: exendin-4 peptide analogue SEQ ID NO: 58 (peptide)
peptide: Y[Aib]EGTFTSDLSIQK([γGlu-Stearoyl])ESKAAHEFIEWLKAGGPSSGAPPPSK-NH2
modifications: N-terminus assumed
SMILES: CCCCCCCCCCCCCCCCCC(=O)N[C@@H](CCC(=O)NCCCC[C@H](NC(=O)[C@H](CCC(N)=O)NC(=O)[C@@H](NC(=O)[C@H](CO)NC(=O)[C@H](CC(C)C)NC(=O)[C@H](CC(=O)O)NC(=O)[C@H](CO)NC(=O)[C@@H](NC(=O)[C@H](Cc1ccccc1)NC(=O)[C@@H](NC(=O)CNC(=O)[C@H](CCC(=O)O)NC(=O)C(C)(C)NC(=O)[C@@H](N)Cc1ccc(O)cc1)[C@@H](C)O)[C@@H](C)O)[C@@H](C)CC)C(=O)N[C@@H](CCC(=O)O)C(=O)N[C@@H](CO)C(=O)N[C@@H](CCCCN)C(=O)N[C@@H](C)C(=O)N[C@@H](C)C(=O)N[C@@H](Cc1c[nH]cn1)C(=O)N[C@@H](CCC(=O)O)C(=O)N[C@@H](Cc1ccccc1)C(=O)N[C@H](C(=O)N[C@@H](CCC(=O)O)C(=O)N[C@@H](Cc1c[nH]c2ccccc12)C(=O)N[C@@H](CC(C)C)C(=O)N[C@@H](CCCCN)C(=O)N[C@@H](C)C(=O)NCC(=O)NCC(=O)N1CCC[C@H]1C(=O)N[C@@H](CO)C(=O)N[C@@H](CO)C(=O)NCC(=O)N[C@@H](C)C(=O)N1CCC[C@H]1C(=O)N1CCC[C@H]1C(=O)N1CCC[C@H]1C(=O)N[C@@H](CO)C(=O)N[C@@H](CCCCN)C(N)=O)[C@@H](C)CC)C(=O)O
B4: exendin-4 peptide analogue SEQ ID NO: 61 (peptide)
peptide: Y[Aib]QGTFTSDLSKQK([γGlu-Palmitoyl])DSKAAQDFIEWLKAGGPSSGAPPPS-NH2
modifications: N-terminus assumed
SMILES: CCCCCCCCCCCCCCCC(=O)N[C@@H](CCC(=O)NCCCC[C@H](NC(=O)[C@H](CCC(N)=O)NC(=O)[C@H](CCCCN)NC(=O)[C@H](CO)NC(=O)[C@H](CC(C)C)NC(=O)[C@H](CC(=O)O)NC(=O)[C@H](CO)NC(=O)[C@@H](NC(=O)[C@H](Cc1ccccc1)NC(=O)[C@@H](NC(=O)CNC(=O)[C@H](CCC(N)=O)NC(=O)C(C)(C)NC(=O)[C@@H](N)Cc1ccc(O)cc1)[C@@H](C)O)[C@@H](C)O)C(=O)N[C@@H](CC(=O)O)C(=O)N[C@@H](CO)C(=O)N[C@@H](CCCCN)C(=O)N[C@@H](C)C(=O)N[C@@H](C)C(=O)N[C@@H](CCC(N)=O)C(=O)N[C@@H](CC(=O)O)C(=O)N[C@@H](Cc1ccccc1)C(=O)N[C@H](C(=O)N[C@@H](CCC(=O)O)C(=O)N[C@@H](Cc1c[nH]c2ccccc12)C(=O)N[C@@H](CC(C)C)C(=O)N[C@@H](CCCCN)C(=O)N[C@@H](C)C(=O)NCC(=O)NCC(=O)N1CCC[C@H]1C(=O)N[C@@H](CO)C(=O)N[C@@H](CO)C(=O)NCC(=O)N[C@@H](C)C(=O)N1CCC[C@H]1C(=O)N1CCC[C@H]1C(=O)N1CCC[C@H]1C(=O)N[C@@H](CO)C(N)=O)[C@@H](C)CC)C(=O)O
B5: exendin-4 peptide analogue SEQ ID NO: 59 (peptide)
peptide: Y[Aib]EGTFTSDLSIQK([γGlu-Palmitoyl])EKRAAHEFIEWLKNTGPSSGAPPPS-NH2
modifications: N-terminus assumed
SMILES: CCCCCCCCCCCCCCCC(=O)N[C@@H](CCC(=O)NCCCC[C@H](NC(=O)[C@H](CCC(N)=O)NC(=O)[C@@H](NC(=O)[C@H](CO)NC(=O)[C@H](CC(C)C)NC(=O)[C@H](CC(=O)O)NC(=O)[C@H](CO)NC(=O)[C@@H](NC(=O)[C@H](Cc1ccccc1)NC(=O)[C@@H](NC(=O)CNC(=O)[C@H](CCC(=O)O)NC(=O)C(C)(C)NC(=O)[C@@H](N)Cc1ccc(O)cc1)[C@@H](C)O)[C@@H](C)O)[C@@H](C)CC)C(=O)N[C@@H](CCC(=O)O)C(=O)N[C@@H](CCCCN)C(=O)N[C@@H](CCCNC(=N)N)C(=O)N[C@@H](C)C(=O)N[C@@H](C)C(=O)N[C@@H](Cc1c[nH]cn1)C(=O)N[C@@H](CCC(=O)O)C(=O)N[C@@H](Cc1ccccc1)C(=O)N[C@H](C(=O)N[C@@H](CCC(=O)O)C(=O)N[C@@H](Cc1c[nH]c2ccccc12)C(=O)N[C@@H](CC(C)C)C(=O)N[C@@H](CCCCN)C(=O)N[C@@H](CC(N)=O)C(=O)N[C@H](C(=O)NCC(=O)N1CCC[C@H]1C(=O)N[C@@H](CO)C(=O)N[C@@H](CO)C(=O)NCC(=O)N[C@@H](C)C(=O)N1CCC[C@H]1C(=O)N1CCC[C@H]1C(=O)N1CCC[C@H]1C(=O)N[C@@H](CO)C(N)=O)[C@@H](C)O)[C@@H](C)CC)C(=O)O

These binders were tested against human glucagon receptor (human, UniProt P47871 26-477) (assay: cell-based or functional assay).
human glucagon receptor, sequence (P47871 26-477): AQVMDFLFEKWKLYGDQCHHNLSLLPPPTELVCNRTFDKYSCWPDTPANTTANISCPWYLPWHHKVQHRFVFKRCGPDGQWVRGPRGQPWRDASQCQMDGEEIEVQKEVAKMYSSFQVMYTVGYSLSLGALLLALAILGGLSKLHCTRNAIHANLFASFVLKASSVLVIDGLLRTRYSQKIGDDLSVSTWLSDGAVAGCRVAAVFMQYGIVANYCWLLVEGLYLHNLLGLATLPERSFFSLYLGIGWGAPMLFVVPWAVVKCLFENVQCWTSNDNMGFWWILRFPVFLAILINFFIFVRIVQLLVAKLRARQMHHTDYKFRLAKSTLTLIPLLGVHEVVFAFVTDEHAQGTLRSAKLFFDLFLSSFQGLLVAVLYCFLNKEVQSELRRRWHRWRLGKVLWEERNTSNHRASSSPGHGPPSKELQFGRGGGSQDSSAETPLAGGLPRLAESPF

Row | Binder | EC50 hGLUC R [nM]
1 | B1 | 14.4
2 | B2 | 0.0091
3 | B3 | 16
4 | B4 | 0.0061
5 | B5 | 12.3

What follows are binders tested against T1, human GIP receptor (assay: cell-based or functional assay).

Row | Binder | EC50 hGIP R [nM]
6 | B1 | 0.0157
7 | B2 | 0.0168
8 | B3 | 0.0086
9 | B4 | 0.0214
10 | B5 | 0.0175

These binders were tested against human GLP-1 receptor (human, UniProt P43220 24-463) (assay: cell-based or functional assay).

Row | Binder | EC50 hGLP-1 R [nM]
11 | B1 | 0.0071
12 | B2 | 0.0053
13 | B3 | 0.0125
14 | B4 | 0.0024
15 | B5 | 0.0075
